These results are taken from the nanobody polyreactivity screen of Harvey et al. (2022).

The data set can be described thus: yeast display, Sf9 membrane polyspecificity reagent, FACS + sequencing; frameworks hold sequencing errors. Summed up:
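Galactose-induced (36–48 hours) yeast carrying a synthetic nanobody display library were exposed to 10% biotinylated, detergent-solubilized Sf9 membrane reagent at 4 °C for 1 hour. FACS followed streptavidin microbead enrichment, using low and high (top ~1%) gates for expression (anti-HA) and reagent binding (streptavidin). Colony PCR, MiSeq 2 × 250 sequencing and CDR-length filtering followed. Labels for polyreactivity reflect the gate of origin.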
Take “QVQLVESGGGFVQAGGSLRFSCAASGRIFPGYAMGWYRQAPGKERELVAAISASGGSTYDADSVKGRFTISRDNAKNPVYLQMNSLKPEDPAVYYCNAVYRLIRFDYWGQGTQVTVSS”: the “polyreactivity (PSR sort gate)” value was “high polyreactivity”.

Take “QVQLVESGGGFVQAGGSLRISCAASGSTIGGNGKGWYRQAPGKEREIVATITWPSGSTYYADSVKGRFTISRDNAKNTVYLQMKSLKPEDTAVYYCAKNTSSRRNPWYYYWGQGTQVTVSS”: the “polyreactivity (PSR sort gate)” value was “high polyreactivity”.

Turning to “QVQLVESGGGFVQAGGSLRLSCAASGFIFNRNAMGWYRQAPGKERELVAAISRSGGRTYYADSVKGRFTISRDTAKNTDYFQMNSLKPEDTAVYSCATEGYDGEFDYWGQGTQVTVSS”, the “polyreactivity (PSR sort gate)” value is “high polyreactivity”.

With “QVQLVESGGGFVQAGGSLRLSCAASGFTFTSYAMGWYRQAPGKEREFVAAIRRSGSGTNYADSVKGRFTISRDNAKNTVYLQLNSLKPEDTAVYYCAAEQWGWYWYDYWGQGTQVTVSS”, the “polyreactivity (PSR sort gate)” value is “high polyreactivity”.

Consider “QVQLVESGGGFVQAGGSLRLSCAASGLSFNFNAMGWYRQAPGKERELVAAIDSGGDTNYADSVKGRFSISRDNEKNTVYLQMNSLKPEDTAVYYCNTDRYPYAFEYWGQGTQVTVSS”, for which the “polyreactivity (PSR sort gate)” value was “low polyreactivity”.

As to “QVQLVESGGGFVQAGGSLRLSCAASGLTFWPYVMGWYRQAPGKERELVAAIDDTGITYYADSVKGRFTISRDNAKNTVYLQMNSLKPEDTAVYYCATDWDYYFPWIYPSDAGPEDGYWGQGTQVTVSS”, the “polyreactivity (PSR sort gate)” value is given as “low polyreactivity”.

For the sequence “QVQLVESGGGFVQAGGSLRLSCAASGRIFKQYGIGWYRQAPGKERELVAAIRSGDSTNYADSVKGRFTISRDNAKNTVYLQMNSLKPEDTAVYYCARDRPGDYAGYDYWGQGTQVTVSS”, the “polyreactivity (PSR sort gate)” value is given as “low polyreactivity”.

For “QVQLVESGGGFVQAGGSLRLSCAASGRIFPEYSRGWYRQAPGKERELVASINSDGSTNYADSVKGRFTISRDNAKNTVYLQMNSLKPEDTAVYYCATEGSGTGIFISKFDYWGQGTQVTVSS”, the “polyreactivity (PSR sort gate)” value was “low polyreactivity”.

Consider “QVQLVESGGGFVQAGGSLRLSCAASGRIFTRYAMGWYRQAPGKERELVASISWSGDGTYYADSVKGRFTISRDNAKNTVYLQMNSLKPDDTAVYYCAARYGTVVPGQVRWYGYGYWGQGTQVTVSS”, for which the “polyreactivity (PSR sort gate)” value was “high polyreactivity”.

With “QVQLVESGGGFVQAGGSLRLSCAASGRNFFSNAMGWYRQAPGNEWELVASITSRGGTTYYADSVKGRFTISSYNAKNPVYLQMNSVKPEDTAVYYCAALRRSYFGYWGQVTQVTVSS”, the “polyreactivity (PSR sort gate)” value is reported as “high polyreactivity”.

On to “QVQLVESGGGFVQAGGSLRLSCAASGRTFQFYAMGWYRQAPGKERELVAAITYSGDSTYYADSVKGRFTISRDNAKNTVYLQMNSLKPEDTAVYYCAAGVWFYWYEYDYWGQGTQVTVSS”, for which the “polyreactivity (PSR sort gate)” value is listed as “high polyreactivity”.

Turning to “QVQLVESGGGFVQAGGSLRLSCAASGSIFDYYTMGWYRQAPGKEREFVAGISDSGGSTNYADSVKGRFTISRDNAKNTVYLQMNSLKPEDTAVYYCNAEYVGWFYKYDYWGQGTQVTVSS”, the “polyreactivity (PSR sort gate)” value was “high polyreactivity”.

Take “QVQLVESGGGFVQAGGSLRLSCAASGSIFGSYAMGWYRQAAGKERELVPDISSGGSTNYADSVKGRFTISRDNAKYTVYLQMNSLKPEDTAVYYCNADDPAGYLYWWGSWLESDYWGQGTQVTVSS”: the “polyreactivity (PSR sort gate)” value is reported as “low polyreactivity”.

For the sequence “QVQLVESGGGFVQAGGSLRLSCAASGSIFRFYAMGWYRQAPGKERELVASITSGGSTNYADSVKGRFTISRDNAKNTVYLQMNSLKPEDTAVYYCAVRLKGYRRRDYWGQGTQVTVSS”, the “polyreactivity (PSR sort gate)” value is “high polyreactivity”.

“QVQLVESGGGFVQAGGSLRLSCAASGSIFVKYAMGWYRQAPGTERELVAAISRSGDSTYYADSVKGRFTLSRDNAKNTVYLQMNSLNPEDTAAYSCAAYSGYGGVSMYYWGQGTQVTVSS”: the “polyreactivity (PSR sort gate)” value was “low polyreactivity”.

Regarding “QVQLVESGGGFVQAGGSLRLSCAASGSIFWTYAMGWYRPAPGNERELVATIPYSDGNTYYADSVKGRFTISRDHAKNTVYLQMNSLKPEDTAVYYGAADTVPDWQEYDYWGQGTQVTVSS”, the “polyreactivity (PSR sort gate)” value is reported as “low polyreactivity”.

On to “QVQLVESGGGFVQAGGSLRLSCAASGSTFAYYTMGWYRQAPGKERELVAASYGAGGSTYYADSVKGRFTISRDNAKNTVYLQRNSLIPEDTAVYYCNVVVSVHISVSQYDYWGQGTQVTVSS”, for which the “polyreactivity (PSR sort gate)” value is “high polyreactivity”.

On to “QVQLVESGGGFVQAGGSLRLSCAASGSTFSVYAMGWYRQAPGKERELVATIRRGGSTYADSVKGRFTISRDNAKNTVYLQMNSLKPEDTAVYDCAADAYVSSQPMDYWGQGTQVTVSS”, for which the “polyreactivity (PSR sort gate)” value was “high polyreactivity”.

As for “QVQLVESGGGFVQAGGSLRLSCAGSGSTFTSYAMGWYRQAPGKERELVASIRSTSGRTYYADSVKGRFTISRDNAKNTVYLQMNSQKPQDTAVYYCAAATYGTWWTYADNPYDYWGQGTQGTVSS”, the “polyreactivity (PSR sort gate)” value was “high polyreactivity”.

Turning to “QVQLVESGGGFVQAGGSLRLSCPPSGRIIQAYAMAWYRQSPGKERELVAAISRSGGGTYYADSVKVRFTISRDNAKNTVYFLMNSLKPEDTAVSYCNAYYYYYTARWTQVNYWGQGTQVTVSS”, the “polyreactivity (PSR sort gate)” value is reported as “high polyreactivity”.

As for “QVQLVESGGGFVQAGGSLRLSFAASGFTFGRYAMGWYIQAPGKERELVAAISWSDGSTYYADSVKGRFTISRDNAKNTVYLQMNSLKPQDTAVYYCAARYGGGISQAKYYYWGQGTQVTVSS”, the “polyreactivity (PSR sort gate)” value is “high polyreactivity”.

As to “QVQLVESGGGFVQARGSLRLSCAACGRTYFPNAMGWYRQAPGKERELVAAITTSGGITYYADSVKGRFTISRDNAKNTVYLQMNSLKPEDTAVYYCATEWRTTGYRYYYWGQGTQVTVSS”, the “polyreactivity (PSR sort gate)” value was “high polyreactivity”.

Take “QVQLVESGGGIDQAGGSLRLSCAASAFTLINYAMAWYRQAPGKERELVAAISQSGGSTYYADSVKGRFTISSDNAKNTVYLQMNSLKPEDTAVYYCNARRRGWGWTIGYVWRDDYWGQGTQVTVSS”: the “polyreactivity (PSR sort gate)” value is recorded as “high polyreactivity”.

Consider “QVQLVESGGGIFQAGGSLRLSCAASGRIYNYYAMGWTRQAPGQEREFVAAITRSGGRPYYADSVKGRFTISRDKGKNTVYLLMNSLKPEDTAVYYFAAPFGTYAYDYWGQGTLVTVSS”, for which the “polyreactivity (PSR sort gate)” value is recorded as “high polyreactivity”.

On to “QVQLVESGGGIFQAGGSLRLSCSASGFTLQGYAMVWSRQAPGKERELVAAISWSGGSTYYADSVKGRFTISRDNAKNTVYLQMNSLKPEDTAVYYCAAETYFAEYWGQGTQVTVSS”, for which the “polyreactivity (PSR sort gate)” value is given as “high polyreactivity”.

Take “QVQLVESGGGILQAGGSLRLSCAASGFISSVNAMGWYRQATGKERELVAAISDSATSTYYADSVKGRFTISRDNAKNTVYLQMNSLKPVDTALYYCAAYSHYVGYEYWGQGTQVTVSS”: the “polyreactivity (PSR sort gate)” value is given as “high polyreactivity”.

Consider “QVQLVESGGGILQAGGSLRLSCAASGITFVVYAMGCYRQAPGKERELVDSITYSGGSTYYADSVKGRFTISRDNAKNTVYLQMISLKPEDTAFYYCNADGYSIYYLPYSDYDAYDYWGQGTQVTVSS”, for which the “polyreactivity (PSR sort gate)” value is “low polyreactivity”.

As for “QVQLVESGGGIVEAGVSLRLRGAASGGSFKSKAMVWYRQAPGNEREFVAAISSSGGSTYYADSVKGRFTISRDNAKNTVYLLMNILKPEDTAVYYCAADDYGYPYLSYDYWGQGTQVTVSS”, the “polyreactivity (PSR sort gate)” value is recorded as “high polyreactivity”.

As to “QVQLVESGGGIVQACGSLRLSCAASGFTFYVYAMGWYRKAPGKEREFVAAISKSGGRTYYADSVMGRFTISRDNAKNTVYLQMNSLKPEDTAVYYCGRYNRYQIIYPGFDYWGQGTQVTVSS”, the “polyreactivity (PSR sort gate)” value is on record as “high polyreactivity”.

As for “QVQLVESGGGIVQAGGRLRLSCAASGNTFQDYAMGWYRQAPGKERELVAAINSGGSTNYADSVKGRFTISRDNAKNTVYLQMNSLKPEDTAVYYCAAEPGEGFDYWGQGTQVTVSS”, the “polyreactivity (PSR sort gate)” value is reported as “low polyreactivity”.

“QVQLVESGGGIVQAGGSLRISCAASGYNFRYNAMGWYRQAPGKERELVATITRGGSTNYPDSVKGRFTISRDNAKNTVYLQMNSMKPEDTAVYYCKKEAAPLGFVPSYYGRDYWGQGTQVTVSS”: the “polyreactivity (PSR sort gate)” value is “low polyreactivity”.

As for “QVQLVESGGGIVQAGGSLRLRCAASGFTFERYSMGWYRQAPGKERELVATITRRSGRTSYADSVKGRFTISRDNATNTVYLQMNRLKPEDTAVYYCAVDDAYPDRYDYWGQGTQVTVSS”, the “polyreactivity (PSR sort gate)” value is given as “high polyreactivity”.

For “QVQLVESGGGIVQAGGSLRLRCAASGSTFNKYAMGWYRQAPGKERELVAAISGGGRTNYADSVKGRFTISRDNAKNTVYLQMNSLKPEDTAVYSCARPSPHKGYDYWGQGTQVTVSS”, the “polyreactivity (PSR sort gate)” value was “high polyreactivity”.

As for “QVQLVESGGGIVQAGGSLRLRCAASGSTFYLNVMGWYRQAPGQERELVAAISSGDGSTYYADSVKGRFTISRDNAKNTVYLQMNSLKPEDTAVYYCAAEPDTEVDYDYWGQGTQVTVSS”, the “polyreactivity (PSR sort gate)” value is given as “low polyreactivity”.

With “QVQLVESGGGIVQAGGSLRLSCAASAIIFLDNPMGWSRQAPGKERELVADITSSGGSTYYADSVKGRFTISRDNAKNTVSLQMNSLKPEDTAVYYCAKYVYGKFDGVRFSYDYWGQGTQVTVSS”, the “polyreactivity (PSR sort gate)” value is “low polyreactivity”.

With “QVQLVESGGGIVQAGGSLRLSCAASGFTFARNAMGWSRQAPGNEWELVAAISYRGGSTYYADSVKGRFTISRDNAKNTLYLQMNSLKPQDTAVYYCAAEVVWYVYRRYYYWGQGTQVTVSS”, the “polyreactivity (PSR sort gate)” value is reported as “high polyreactivity”.

Consider “QVQLVESGGGIVQAGGSLRLSCAASGFTFRGNAMGWYRQAPGKERELVAVINASGDSTYYADSVKGRFTISRDNAKNTVYLQMNSLKPEDTAVYYCARAYTRRWRYDYWGQGTQVTVSS”, for which the “polyreactivity (PSR sort gate)” value was “high polyreactivity”.

With “QVQLVESGGGIVQAGGSLRLSCAASGGIFFPNAMGWYRQAPGKERELVAAISWSAGSTYYADSVKVRFTISRDNAKNTVYLKKISLIPEDTAVYYCAAAGSNYTVWYGYYYWGQGTQVTVSS”, the “polyreactivity (PSR sort gate)” value is reported as “low polyreactivity”.

For the sequence “QVQLVESGGGIVQAGGSLRLSCAASGIIFYGYAMGWYRQAPGKERELVAVITSGGSTNYADSVKGRFTISRDNAKNTVYLQMNSLKPEDTAVYYCNAGYVSPDYDSWGQGTQVTVSS”, the “polyreactivity (PSR sort gate)” value is on record as “high polyreactivity”.

For the sequence “QVQLVESGGGIVQAGGSLRLSCAASGITFPNYAMGWYRQAPGKERELVAAISSSGGSTYYADSVKGRFTISRDNPKNTVYLQMNSLKPEDTAVYYCATAINVYPRLDYGYWGQGTQVTVSS”, the “polyreactivity (PSR sort gate)” value was “low polyreactivity”.

As for “QVQLVESGGGIVQAGGSLRLSCAASGLIFSVNAMGWYRQAPGKERELVASISVSGGSTYYADSVKGRFTISRDNAKNTVYLQMNSLKPEDTAVYYCNTVPLAGEYSTDLRYDYWGQGTQVTVSS”, the “polyreactivity (PSR sort gate)” value was “low polyreactivity”.
